Experimental data from paper PMC4357396.

Target: biotinylated HLA-A*0201-…
Assay: SPR; BIAcore T100, CM5 chip; A2-EAA on the chip, MEL5 injected (ten serial dilutions, 45 uL/min); KDs by equilibrium analysis in triplicate at 5, 10, 15, 20, 25 and 30°C, nonlinear van't Hoff fit with T0 = 298 K; 10 mM HEPES pH 7.4, 150 mM NaCl, 3 mM EDTA, 0.005% P20; HLA-A*0201-… as negative control surface

- dH: -14 kcal/mol
Substance: MEL5 TCR
